These results are taken from publication PMC3781045.

The data set concerns the target T1, rZur (ZurPA, Np20) (Pseudomonas aeruginosa PAO1?) (UniProt Q9HT74).
T1 sequence: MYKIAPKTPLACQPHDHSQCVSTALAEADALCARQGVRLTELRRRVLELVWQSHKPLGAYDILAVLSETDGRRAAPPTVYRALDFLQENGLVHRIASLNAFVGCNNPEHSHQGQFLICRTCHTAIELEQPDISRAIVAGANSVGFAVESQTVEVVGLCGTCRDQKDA
Kind of data set: EMSA. The settings on record: 10 mM Tris-HCl pH 8.0, 40 mM KCl, 10 mM MgCl2, 1 mM DTT, 5% glycerol, 1 uM ZnCl2, 0.5 ug salmon sperm DNA; room temperature 30 min; gel at 4 C.

“CGGCGAAGCCAGCAGGAACAGGGCGAAGCAGGCGGACAGCAGGGCAAAGGGACGCAGGGTCACGGCGGCACTCACATGAAAGGTGGTTAGCGGGTAATATAATAACGTCTCTACCCTCGAGCGTCGCAGCCCATGTACAAGATTGCGCCCAAGACCCCGCTGGCCTGCCAGCCCCATGACCACAGCCAGTGCGTCAGCA (double strand) [znuA promoter fragment]”: the binding result is listed as “binds”.
